The values that follow come from publication PMC8566583.

As a reminder, the Kd is the concentration at which binding is half-saturated.

In one assay the target is PARP1 (Homo sapiens) (UniProt P09874). To be noted: cited from earlier work.
The target in the next assay is PARP2 (Homo sapiens) (UniProt Q9UGN5). The conditions noted are these: cited from earlier work.
Assay [1] deals with Recombinant wild-type human PARP1 (human) (UniProt P09874).
In assay [2] the target is Recombinant wild-type murine PARP2 (murine) (UniProt O88554).

Values joined by “and” are separate entries in the source; they are usually repeats but may differ in a detail not shown here. Equal entries are not always repeated.

Sequence of UniProt Q9UGN5 (Q9UGN5 whole entry): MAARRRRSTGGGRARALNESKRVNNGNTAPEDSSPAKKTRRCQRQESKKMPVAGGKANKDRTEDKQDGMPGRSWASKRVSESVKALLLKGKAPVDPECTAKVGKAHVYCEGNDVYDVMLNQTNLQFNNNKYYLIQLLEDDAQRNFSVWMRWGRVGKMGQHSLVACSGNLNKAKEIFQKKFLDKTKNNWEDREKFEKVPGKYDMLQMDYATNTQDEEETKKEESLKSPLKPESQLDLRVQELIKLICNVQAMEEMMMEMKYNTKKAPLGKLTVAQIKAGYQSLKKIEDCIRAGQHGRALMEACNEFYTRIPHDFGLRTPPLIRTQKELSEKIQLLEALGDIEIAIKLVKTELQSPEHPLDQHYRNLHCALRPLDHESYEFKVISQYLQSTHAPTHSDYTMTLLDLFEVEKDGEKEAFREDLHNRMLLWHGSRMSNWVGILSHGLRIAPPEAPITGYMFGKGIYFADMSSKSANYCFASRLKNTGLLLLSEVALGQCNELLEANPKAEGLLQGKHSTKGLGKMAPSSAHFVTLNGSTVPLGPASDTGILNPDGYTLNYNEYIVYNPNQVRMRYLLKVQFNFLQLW
Sequence of UniProt O88554 (O88554 whole entry): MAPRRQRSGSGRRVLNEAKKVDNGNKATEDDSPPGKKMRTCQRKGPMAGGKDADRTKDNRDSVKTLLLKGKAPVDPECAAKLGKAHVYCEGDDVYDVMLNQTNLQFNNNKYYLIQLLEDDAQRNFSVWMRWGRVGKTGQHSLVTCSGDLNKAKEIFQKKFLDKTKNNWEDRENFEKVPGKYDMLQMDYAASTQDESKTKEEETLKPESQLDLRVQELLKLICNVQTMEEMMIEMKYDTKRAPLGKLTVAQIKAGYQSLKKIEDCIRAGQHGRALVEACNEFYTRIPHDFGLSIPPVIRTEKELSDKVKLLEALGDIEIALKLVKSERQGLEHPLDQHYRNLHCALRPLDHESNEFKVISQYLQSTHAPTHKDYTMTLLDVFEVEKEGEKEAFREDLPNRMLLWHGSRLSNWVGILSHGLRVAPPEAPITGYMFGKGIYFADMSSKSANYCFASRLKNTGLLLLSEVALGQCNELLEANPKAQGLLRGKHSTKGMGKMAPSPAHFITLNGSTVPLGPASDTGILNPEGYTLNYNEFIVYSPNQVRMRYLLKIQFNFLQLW

Take HPF1 (from UniProt Q9NWY4): the Kd with PARP1 (Homo sapiens) was > 3000 nM and 790 nM; in the assay with PARP2 (Homo sapiens), 280 nM.

B1: histone PARylation factor 1 (HPF1), recombinant human (natural protein)
chain: MVGGGGKRRPGGEGPQCEKTTDVKKSKFCEADVSSDLRKEVENHYKLSLPEDFYHFWKFCEELDPEKPSDSLSASLGLQLVGPYDILAGKHKTKKKSTGLNFNLHWRFYYDPPEFQTIIIGDNKTQYHMGYFRDSPDEFPVYVGINEAKKNCIIVPNGDNVFAAVKLFLTKKLREITDKKKINLLKNIDEKLTEAARELGYSLEQRTVKMKQRDKKVVTKTFHGAGLVVPVDKNDVGYRELPETDADLKRICKTIVEAASDEERLKAFAPIQEMMTFVQFANDECDYGMGLELGMDLFCYGSHYFHKVAGQLLPLAYNLLKRNLFAEIIEEHLANRSQENIDQLAA
On to B1, for which the DNA-independent autoPARylation level of PARP1 (500 nM, 1 uM [32P]NAD+, no DNA or NCP) with HPF1 from 60 nM to 16 uM, relative to no HPF1; maximal effect in assay [1] was found to be 1.6 fold. Besides, the DNA-independent autoPARylation level of PARP2 (500 nM, 1 uM [32P]NAD+, no DNA or NCP) with HPF1 from 60 nM to 16 uM, relative to no HPF1; maximal effect (at a 4-fold excess of HPF1) in assay [2] was determined as 2.4 fold.
